Data reported in US20150197568A1 (AstraZeneca / MedImmune, published 2015).
Positions count from the first letter of the chain named.

B1: Antibody 23 IgG (antibody, V domains shown)
VH: EVQLVQSGGGLIQPGGSLRLSCAASGFTISSNYMIWVRQAPGKGLEWVSDLYYYAGDTYYADSVKGRFTMSRDISKNTVYLQMNSLRAEDTGVYYCARWADDHAPWVDLWGRGTLVTVSS
VL: DIVMTQSPSTLSASVGDRVTITCRASQGISSWLAWYQQKPGRAPKVLIYKASTLESGVPSRFSGSGSGTDFTLTISSLQPEDFATYYCQQSWLGGSFGQGTKLEIKR
B2: Antibody 8 IgG (antibody, V domains shown)
VH: B1 VH with A104P, P105R, W106Y, V107I, L109H
VL: B1 VL
B3: Antibody 16 IgG (antibody, V domains shown)
VH: B1 VH with A104P, W106Y, V107I
VL: B1 VL
B4: Antibody 14 IgG (antibody, V domains shown)
VH: EVQLVQSGGGLIQPGGSLRLSCAASGFTISSNYMIWVRQAPGKGLEWVSDLYYYAGDTYYADSVKGRFTMSRDISKNTVYLQMNSLRAEDTGVYYCARWADDHNYPHIDVWGRGTLVTVSS
VL: DIVMTQSPSTLSASVGDRVTITCRASQGISSWLAWYQQKPGRAPKVLIYKASTLESGVPSRFSGSGSGTDFTLTISSLQPEDFATYYCAAHYAAPWTFGQGTKLEIKR
B5: Antibody 19 IgG (antibody, V domains shown)
VH: B1 VH with A104P, P105S, W106H, V107L, L109I
VL: B1 VL
B6: CAN022D10 scFv (scFv, V domains shown)
VH: B1 VH with A104Y, P105Y, W106Y, V107I, L109V
VL: B4 VL with A89Q, A90Q, H91S, A93S, A94T
notes: Purified scFv from bacteria; also called CAN22D10; parent; not shown: scFv linker, domain order and any purification tags
B7: Antibody 7 (GL) IgG (antibody, V domains shown)
VH: B1 VH with Q6E, I12V, G92A, A104P, P105A
VL: B1 VL with V3Q, R42K, D70E, E81D
notes: Germlined IgG1 with human kappa constant domain; also called Ab 7
B8: Antibody 18 (GL) IgG (antibody, V domains shown)
VH: B1 VH with Q6E, I12V, G92A, A104P, V107I
VL: B1 VL with V3Q, R42K, D70E, E81D
notes: Germlined IgG1/kappa; also called Ab 18
B9: Antibody 17 (GL) IgG (antibody, V domains shown)
VH: B1 VH with Q6E, I12V, G92A, A104P, W106Y, V107I, L109M
VL: B1 VL with V3Q, R42K, D70E, E81D
B10: Antibody 4 scFv (scFv, V domains shown)
VH: B1 VH with I29V, I35T, D102G, A104Y, P105Y, W106Y, V107A, L109V, T117S
VL: B4 VL with T85S, A89Q, A90Q, H91S, A93S, I106L
notes: Non-germlined; also called Ab 4; not shown: scFv linker, domain order and any purification tags
B11: Antibody 3 scFv (scFv, V domains shown)
VH: B1 VH with E1Q, I35V, M70V, A104Y, P105Y, W106H, V107I, L109V
VL: B4 VL with V46A, A89Q, A90Q, H91S, A93S, A94T
notes: Non-germlined; also called Ab 3; not shown: scFv linker, domain order and any purification tags
B12: Antibody 5 scFv (scFv, V domains shown)
VH: B1 VH with D102G, A104Y, P105Y, W106Y, V107A, L109V, T117S
VL: B4 VL with S9P, T85S, A89Q, A90Q, H91S, A93S
notes: Non-germlined; also called Ab 5; not shown: scFv linker, domain order and any purification tags
B13: Antibody 2 scFv (scFv, V domains shown)
VH: B1 VH with I35T, K65R, N84D, D102G, A104Y, P105Y, W106Y, V107I, L109V, R112G
VL: B4 VL with A34T, A89Q, A90Q, H91S, A93S, I106L
notes: Non-germlined; also called Ab 2; not shown: scFv linker, domain order and any purification tags
B14: Cynomolgus IL-6 (ligand, UniProt P79341 28-212, looked up)
chain: APVLPGEDSKDVAAPHSQPLTSSERIDKHIRYILDGISALRKETCNRSNMCESSKEALAENNLNLPKMAEKDGCFQSGFNEDTCLVKIITGLLEFEVYLEYLQNRFESSEEQARAVQMSTKVLIQFLQKKAKNLDAITTPEPTTNASLLTKLQAQNQWLQDMTTHLILRSFKEFLQSSLRALRQM
notes: mature; also called cyno IL-6; macaque IL-6
B15: Antibody 10 (GL) IgG (antibody, V domains shown)
VH: EVQLVESGGGLVQPGGSLRLSCAASGFTISSNYMIWVRQAPGKGLEWVSDLYYYAGDTYYADSVKGRFTMSRDISKNTVYLQMNSLRAEDTAVYYCARWEEEGRGYIDVWGRGTLVTVSS
VL: B1 VL with V3Q, R42K, D70E, E81D
B16: Antibody 3 IgG (antibody, V domains shown)
VH: B1 VH with E1Q, I35V, M70V, A104Y, P105Y, W106H, V107I, L109V
VL: B4 VL with V46A, A89Q, A90Q, H91S, A93S, A94T
notes: Non-germlined; IgG1 with human heavy chain and kappa constant domains; also called Ab 3
B17: Antibody 4 IgG (antibody, V domains shown)
VH: B1 VH with I29V, I35T, D102G, A104Y, P105Y, W106Y, V107A, L109V, T117S
VL: B4 VL with T85S, A89Q, A90Q, H91S, A93S, I106L
notes: Non-germlined; IgG1 with human heavy chain and kappa constant domains; also called Ab 4
B18: Antibody 2 IgG (antibody, V domains shown)
VH: B1 VH with I35T, K65R, N84D, D102G, A104Y, P105Y, W106Y, V107I, L109V, R112G
VL: B4 VL with A34T, A89Q, A90Q, H91S, A93S, I106L
notes: Non-germlined; also called Ab 2
B19: Antibody 5 IgG (antibody, V domains shown)
VH: B1 VH with D102G, A104Y, P105Y, W106Y, V107A, L109V, T117S
VL: B4 VL with S9P, T85S, A89Q, A90Q, H91S, A93S
notes: Non-germlined; IgG1 with human heavy chain and kappa constant domains; also called Ab 5

biological target: T1, Mature human IL-6 (human, UniProt P05231 30-212); assay: cell-based or functional assay
Target sequence in this assay (P05231 30-212): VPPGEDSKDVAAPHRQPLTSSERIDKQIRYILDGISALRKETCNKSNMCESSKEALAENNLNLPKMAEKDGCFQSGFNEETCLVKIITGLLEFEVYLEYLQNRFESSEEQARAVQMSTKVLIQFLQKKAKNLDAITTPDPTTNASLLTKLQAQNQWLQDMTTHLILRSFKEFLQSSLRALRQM

Binder	IC50, TF-1 cell proliferation assay [nM]
B1	0.02
B2	0.048
B3	0.0049
B4	0.031
B5	0.068

biological target: T2, HIS FLAG tagged human IL-6 (human, UniProt P05231 30-212); assay: HTRF receptor-ligand competition; HIS FLAG human IL-6 vs biotinylated sIL-6R
T2 construct: In house; also called HIS FLAG IL-6; HIS/FLAG IL-6
Method: Unique scFvs were expressed again in bacteria and purified by affinity chromatography (as described by Bannister et al. Purified IgG samples of these clones were also prepared as described in section 1.3. The potencies of these samples were determined by competing a dilution series of the purified preparation against biotinylated sIL-6R for binding to HIS FLAG tagged human IL-6 (in house E. coli derived).
Purified scFv and IgG from positive clones identified from screening were tested in a HTRF® assay for inhibition of binding of HIS FLAG tagged human IL-6 to biotinylated IL-6R. 8 nM biotinylated human IL-6R was pre-incubated for 30 minutes at room temperature in the dark, with 8 nM streptavidin XL^{ent!}™. All dilutions were done in phosphate buffered saline (PBS) containing 0.4 M potassium fluoride and 0.1% BSA (assay buffer).

Binder	IC50 [nM]
B6	45

biological target: T1, Mature human IL-6; assay: SPR, BIAcore 2000; IgG amine-coupled to CM5 chip, IL-6 as analyte
Method: (§1) Human and cynomolgus IL-6 at a range of concentrations between 200 nM and 0.2 nM in HBS-EP buffer were passed over the sensor chip surface. The resulting sensorgrams were evaluated using BIA evaluation 3.1 software to provide relative binding data.
(§2) BIAcore studies were undertaken using a BIAcore 2000™. […] Human IL-6 at a range of concentrations between 200 nM and 0.2 nM in HBS-EP buffer were passed over the sensor chip surface. The resulting sensorgrams were evaluated using BIA evaluation 3.1 software to calculate the kₒₙ, koff and KD values for the antibodies tested.

Binder	Kd [nM]
B7	< 0.01
B8	< 0.01

biological target: B14; assay: as above
Method: as §1, §2

Binder	Kd [nM]
B7	< 0.01
B8	< 0.01

biological target: T1, Mature human IL-6; assay: cell-based or functional assay; remark: another data set of the same source

Binder	Mean IC50, inhibition of IL-6 induced IgM secretion from SKW6.4 cells, n=3 [nM]
B7	0.00264
B9	0.00321
B8	0.00263

biological target: T2, HIS FLAG tagged human IL-6; assay: HTRF antibody-ligand competition; competitor biotinylated CAN022D10 IgG
Method: (§3) Crude scFv preparations from a representative number of individual clones for the round 3 and round 4 outputs were screened for their inhibitory activity in a CAN022D10 IgG-IL-6 HTRF® binding assay. In this assay, binding of biotinyated antibody and FLAG-tagged IL-6 was detected using cryptate labelled anti-FLAG monoclonal antibody and streptavidin XL^{ent!}™. The detailed assay method is provided in the Materials and Methods section.
(§4) The IC₅₀ value for each scFv was then calculated from data obtained by a testing dilution series of the purified sample in the HTRF antibody-ligand biochemical assay and TF-1 proliferation assay.
Target sequence in this assay (P05231 other isoform, or with tags, fused parts or gaps): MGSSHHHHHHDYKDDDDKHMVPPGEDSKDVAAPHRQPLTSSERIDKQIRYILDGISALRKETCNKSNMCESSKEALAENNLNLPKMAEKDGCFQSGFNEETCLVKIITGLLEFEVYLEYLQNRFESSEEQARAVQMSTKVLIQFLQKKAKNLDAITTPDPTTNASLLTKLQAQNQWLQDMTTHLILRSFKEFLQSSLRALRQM

Binder	IC50 [nM]
B10	0.024
B11	0.022
B12	0.065
B13	0.035

biological target: T3, CAN022D10 IgG; assay: DELFIA epitope competition; protein titrated against biotinylated HIS FLAG IL-6 on immobilised CAN022D10 IgG
T3 construct: Biotinylated in the HTRF antibody-ligand assay; also called CAN22D10; parent IgG
Method: Titrations of IL-6 species including cynomolgus (in house E. Coli derived), human HIS FLAG IL-6 (in house HEK-EBNA derived), rat and murine IL-6 (both R & D Systems) were tested in each assay to establish the species cross-reactivity of the antibodies. Details of the protocol are provided in the Materials and Methods section.
Purified IgG were adsorbed onto 96-well Maxisorp microtitre plates (Nunc) in PBS at a concentration which gave a significant signal when biotinylated human IL-6 was added at approximately its estimated Kd for that particular IgG. Excess IgG was washed away with PBS-Tween (0.1% v/v) and the wells were blocked with PBS-Marvel (3% w/v) for 1 h. […] These mixtures were then transferred onto the blocked IgG and allowed to equilibrate for 1.5 h. Unbound antigen was removed by washing with PBS-Tween (0.1% v/v), while the remaining biotinylated human IL-6 was detected by streptavidin-Europium3+ conjugate (DELFIA® detection, PerkinElmer). Time-resolved fluorescence was measured at 620 nm on an EnVision plate reader (PerkinElmer). Fluorescence data was converted to % specific binding (100% was determined from control wells containing biotinylated human IL-6 but no competitor, 0% was from wells containing biotinylated human IL-6 and a 100-fold excess of unbiotinylated human IL-6). Resultant data were analysed using Prism curve fitting software (Graphpad) to determine IC50 values according to Equation 3.

Binder	IC50 [nM]
B14	~100

biological target: T1, Mature human IL-6; assay: cell-based or functional assay; remark: another data set of the same source
Target sequence in this assay (P05231 30-212): as the sequence (P05231 30-212) above

Binder	IC50, endogenous IL-6 induced synovial fibroblast VEGF release assay [nM]
B7	0.75
B15	0.55
B9	0.57
B16	0.38
B17	0.52
B18	0.59
B8	0.93
B19	0.7

biological target: T1, Mature human IL-6; assay: cell-based or functional assay; remark: another data set of the same source
Target sequence in this assay (P05231 30-212): as above

Binder	IC50, TF-1 Proliferation Assay [nM]
B16	0.05
B17	0.061
B18	0.016
B10	13.4
B11	7.3
B12	12.4
B19	0.042
B13	9.6

biological target: T2, HIS FLAG tagged human IL-6; assay: HTRF antibody-ligand competition; competitor biotinylated CAN022D10 IgG; protocol modified for IgG (footnote)
Method: as §3, §4
Target sequence in this assay (P05231 other isoform, or with tags, fused parts or gaps): as the sequence (P05231 other isoform, or with tags, fused parts or gaps) above

Binder	IC50 [nM]
B16	0.043
B17	0.043
B18	0.036
B19	0.026

biological target: T1, Mature human IL-6; assay: cell-based or functional assay; remark: another data set of the same source
Target sequence in this assay (P05231 30-212): as the sequence (P05231 30-212) above

Binder	IC50, IL-6 induced TF-1 cell proliferation assay [nM]
B7	0.005
B15	0.071
B9	0.001
B8	0.003
